One molecule from patent US20140314775A1 (ADRENOMED, published 2014) can be followed below.

The target in experiment [1] is T1, human Adrenomedullin (hADM 1-52) (human, not fully specified; C-terminal amide (printed as PRSKISPQGY-NH2 for aa 43-52 of ADM, SEQ ID NO: 25; not restated for the peptide used in the assays)).
T1 peptide: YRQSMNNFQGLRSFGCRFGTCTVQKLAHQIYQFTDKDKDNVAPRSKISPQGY
Put plainly: cell-based or functional assay.

Experiment [2] concerns the target T1, human Adrenomedullin (hADM 1-52). Put plainly: SPR, Biacore 2000; antibody captured via anti-mouse Fc on CM5, Adrenomedullin as analyte. On the procedure: Reversible immobilization of the antibodies was performed using an anti-mouse Fc antibody covalently coupled in high density to a CM5 sensor surface according to the manufacturer's instructions (mouse antibody capture kit; GE Healthcare).
(In general: In SPR one partner is held on a chip, and binding of the other changes the refractive index at the surface.)

B1: NT-H (antibody, V domains shown)
VH: QVQLQQSGAELMKPGASVKISCKATGYTFSRYWIEWVKQRPGHGLEWIGEILPGSGSTNYNEKFKGKATITADTSSNTAYMQLSSLTSEDSAVYYCTEGYEYDGFDYWGQGTTLTVSS
VL: DVLLSQTPLSLPVSLGDQATISCRSSQSIVYSNGNTYLEWYLQKPGQSPKLLIYRVSNRFSGVPDRFSGSGSGTDFTLKISRVEAEDLGVYYCFQGSHIPYTFGGGTKLEIK
notes: also called antibody NT-H; NT-H antibody
With B1, the “IC50 (read off the curve; half of the partial plateau), in the presence of 5.63 nM hADM” value in experiment [1] is about 2 µg/mL. Further, the Kd (usually the concentration at which binding is half-saturated) in experiment [2] is 5.9 nM.
